Measurements: patent publication US20250296971A1, “GASTRIC INHIBITORY PEPTIDE RECEPTOR LIGANDS” (priority 2021, published 2025)
*1 amine or outer side, *2 acyl side, *3 side chain or, on linkers, in order; H or OH if unused. Bridges are numbered along the chain shown (N, C = ends). Primed or numbered codes have the meaning given here. Where no end group is shown, it is not given here. Side-chain parts run from the residue outwards. [ ]: non-standard residue; d: D form. The star is where a group is joined. dE(AGLU) = D-glutamic acid bearing 1-amino-1-deoxy-D-glucitol; Pro(trans-4-NH2) = O=C([C@@H]1C[C@@H](N[*:3])CN1[*:1])[*:2]; DOTA = O=C(O)CN1CCN(CC(=O)O)CCN(CC(=O)*)CCN(CC(=O)O)CC1; NODAGA = O=C(O)CN1CCN(CC(=O)O)CCN(C(CCC(=O)*)C(=O)O)CC1; N4Ac = bis-(2-amino-ethylamine)-methyl-propionic acid; 2Lut = 2,6-lutidylidene bridge between two thiols; N(CH2CH2CO)Gly = O=C(CN(CCC(=O)[*:3])[*:1])[*:2]; Trp(5-Cl) = N[C@@H](Cc1c[nH]c2ccc(Cl)cc12)C(=O)O; Pyridine(2,6-diCH2) = c1cc(C[*:1])nc(C[*:2])c1; 2Lut″ = 2,6-lutidylidene linking two thiols; Pro(trans-4-F) = O=C(O)[C@@H]1C[C@@H](F)CN1; APAc = 4-amino-1-carboxymethylpiperidine; mXylylene = c1cc(C[*:1])cc(C[*:2])c1; Glutaryl = O=C(CCCC(=O)[*:2])[*:1]; PEG6 = NCCOCCOCCOCCOCCOCCOCCC(=O)O; AGLU = 1-amino-1-deoxy-D-glucitol; Hyp = O=C(O)[C@@H]1C[C@@H](O)CN1; pS = N[C@@H](COP(=O)(O)O)C(=O)O; dGlu(AGLU) = not defined here; Aic = NC1(C(=O)O)Cc2ccccc2C1; hCys = N[C@@H](CCS)C(=O)O; hSer = N[C@@H](CCO)C(=O)O; Api = NC1(C(=O)O)CCNCC1; Thp = NC1(C(=O)O)CCOCC1; AEEA = NCCOCCOCC(=O)O; Aib = CC(C)(N)C(=O)O

B1: Ac-Asp-Trp-5Clw-Hyp-Glu-leu-[Cys(2Lut)-Aic-Leu-Ile-Cys]-NH2 (peptide)
peptide: Ac-DW[Trp(5-Cl)][Hyp]E[dL]C[Aic]LIC-NH2
modifications: linker 7-11 via Pyridine(2,6-diCH2)
B2: Ac-Gln-Trp-5Clw-Hyp-Glu-leu-[Cys(2Lut)-Thp-Leu-Ile-Cys]-NH2 (peptide)
peptide: Ac-QW[Trp(5-Cl)][Hyp]E[dL]C[Thp]LIC-NH2
modifications: linker 7-11 via 2Lut″
B3: AGLU-Glutar-Asp-Trp-5Clw-Tap-Glu-leu-[Cys(2Lut)-Apc(N4Ac)-Leu-Ile-Cys]-APAc-glu(AGLU)-NH2 (peptide)
peptide: {AGLU-Glutaryl}-DW[Trp(5-Cl)][Pro(trans-4-NH2)]E[dL]C[Api](N4Ac)LIC-{APAc-dE(AGLU)-NH2}
modifications: linker 7-11 via Pyridine(2,6-diCH2)
B4: Ac-Asp-Trp-5Clw-Nglu-Glu-leu-[Cys(2Lut)-Thp-Leu-Ile-Cys]-NH2 (peptide)
peptide: Ac-DW[Trp(5-Cl)][N(CH2CH2CO)Gly]E[dL]C[Thp]LIC-NH2
modifications: linker 7-11 via Pyridine(2,6-diCH2)
B5: Ac-Pse-Trp-5Clw-Hyp-Glu-leu-[Cys(2Lut)-Thp-Leu-Ile-Cys]-NH2 (peptide)
peptide: Ac-[pS]W[Trp(5-Cl)][Hyp]E[dL]C[Thp]LIC-NH2
modifications: linker 7-11 via Pyridine(2,6-diCH2)
SMILES: CC[C@H](C)[C@@H]1NC(=O)[C@H](CC(C)C)NC(=O)C2(CCOCC2)NC(=O)[C@@H](NC(=O)[C@@H](CC(C)C)NC(=O)[C@H](CCC(=O)O)NC(=O)[C@@H]2C[C@@H](O)CN2C(=O)[C@H](Cc2c[nH]c3ccc(Cl)cc23)NC(=O)[C@H](Cc2c[nH]c3ccccc23)NC(=O)[C@H](COP(=O)(O)O)NC(C)=O)CSCc2cccc(n2)CSC[C@@H](C(N)=O)NC1=O
B6: DOTA-glu(AGLU)-O2Oc-Asp-Trp-5Clw-Tap-Glu-leu-[Cys(2Lut)-Thp-Leu-Ile-Cys]-APAc-glu(AGLU)-NH2 (peptide)
peptide: {DOTA-dGlu(AGLU)-AEEA}-DW[Trp(5-Cl)][Pro(trans-4-NH2)]E[dL]C[Thp]LIC-{APAc-dGlu(AGLU)-NH2}
modifications: linker 7-11 via 2Lut; reading uncertain
B7: DOTA-glu(AGLU)-PEG6-Asp-Trp-5Clw-Tap-Glu-leu-[Cys(2Lut)-Thp-Leu-Ile-Cys]-APAc-glu(AGLU)-NH2 (peptide)
peptide: {DOTA-dGlu(AGLU)-PEG6}-DW[Trp(5-Cl)][Pro(trans-4-NH2)]E[dL]C[Thp]LIC-{APAc-dGlu(AGLU)-NH2}
modifications: linker 7-11 via 2Lut; reading uncertain
B8: Ac-Asp-Trp-5Clw-4Tfp-Glu-leu-[Cys(2Lut)-Thp-Leu-Ile-Cys]-NH2 (peptide)
peptide: Ac-DW[Trp(5-Cl)][Pro(trans-4-F)]E[dL]C[Thp]LIC-NH2
modifications: linker 7-11 via Pyridine(2,6-diCH2)
B9: AGLU-Glutar-Hse-Trp-5Clw-Tap-Glu-leu-[Cys(2Lut)-Apc(DOTA)-Leu-Ile-Cys]-APAc-glu(AGLU)-NH2 (peptide)
peptide: {AGLU-Glutaryl}-[hSer]W[Trp(5-Cl)][Pro(trans-4-NH2)]E[dL]C[Api](DOTA)LIC-{APAc-dE(AGLU)-NH2}
modifications: linker 7-11 via Pyridine(2,6-diCH2)
B10: AGLU-Glutar-Asp-Trp-5Clw-Tap-Glu-leu-[Cys(2Lut)-Apc(NODAGA-Gly)-Leu-Ile-Cys]-APAc-glu(AGLU)-NH2 (peptide)
peptide: {AGLU-Glutaryl}-DW[Trp(5-Cl)][Pro(trans-4-NH2)]E[dL]C[Api]([Gly-NODAGA])LIC-{APAc-dE(AGLU)-NH2}
modifications: linker 7-11 via Pyridine(2,6-diCH2)
B11: Ac-Glu-Trp-5Clw-Hyp-Glu-leu-[Cys(2Lut)-Thp-Leu-Ile-Cys]-NH2 (peptide)
peptide: Ac-EW[Trp(5-Cl)][Hyp]E[dL]C[Thp]LIC-NH2
modifications: linker 7-11 via Pyridine(2,6-diCH2)
SMILES: CC[C@H](C)[C@@H]1NC(=O)[C@H](CC(C)C)NC(=O)C2(CCOCC2)NC(=O)[C@@H](NC(=O)[C@@H](CC(C)C)NC(=O)[C@H](CCC(=O)O)NC(=O)[C@@H]2C[C@@H](O)CN2C(=O)[C@H](Cc2c[nH]c3ccc(Cl)cc23)NC(=O)[C@H](Cc2c[nH]c3ccccc23)NC(=O)[C@H](CCC(=O)O)NC(C)=O)CSCc2cccc(n2)CSC[C@@H](C(N)=O)NC1=O
B12: HO-Succinyl-Trp-5Clw-Pro-Glu-leu-[Cys(3MeBn)-Aib-Leu-Ile-Cys]-NH2 (peptide)
peptide: W[Trp(5-Cl)]PE[dL]C[Aib]LIC-NH2
modifications: linker 6-10 via mXylylene; not fully specified (N-terminus); printed as HO-Succinyl-Trp-5Clw-Pro-Glu-leu-[Cys(3MeBn)-Aib-Leu-Ile-Cys]-NH2
B13: Ac-Asp-Trp-5Clw-Hyp-Asp-leu-[Cys(2Lut)-Thp-Leu-Ile-Cys]-NH2 (peptide)
peptide: Ac-DW[Trp(5-Cl)][Hyp]D[dL]C[Thp]LIC-NH2
modifications: linker 7-11 via Pyridine(2,6-diCH2)
B14: Ac-Asn-Trp-5Clw-Hyp-Glu-leu-[Cys(2Lut)-Thp-Leu-Ile-Cys]-NH2 (peptide)
peptide: Ac-NW[Trp(5-Cl)][Hyp]E[dL]C[Thp]LIC-NH2
modifications: linker 7-11 via Pyridine(2,6-diCH2)
SMILES: CC[C@H](C)[C@@H]1NC(=O)[C@H](CC(C)C)NC(=O)C2(CCOCC2)NC(=O)[C@@H](NC(=O)[C@@H](CC(C)C)NC(=O)[C@H](CCC(=O)O)NC(=O)[C@@H]2C[C@@H](O)CN2C(=O)[C@H](Cc2c[nH]c3ccc(Cl)cc23)NC(=O)[C@H](Cc2c[nH]c3ccccc23)NC(=O)[C@H](CC(N)=O)NC(C)=O)CSCc2cccc(n2)CSC[C@@H](C(N)=O)NC1=O
B15: Ac-Asp-Trp-5Clw-Hyp-Glu-leu-[Hcy(2Lut)-Thp-Leu-Ile-Cys]-NH2 (peptide)
peptide: Ac-DW[Trp(5-Cl)][Hyp]E[dL][hCys][Thp]LIC-NH2
modifications: linker 7-11 via Pyridine(2,6-diCH2)

Target: human Gastric Inhibitory Peptide Receptor (human) (UniProt P48546)
Assay: FACS competition with GIP-057 on CHO-K1-hGIPR cells; pIC50 category A: >8.0

Chain of human Gastric Inhibitory Peptide Receptor (human) (P48546 22-466 limits assumed): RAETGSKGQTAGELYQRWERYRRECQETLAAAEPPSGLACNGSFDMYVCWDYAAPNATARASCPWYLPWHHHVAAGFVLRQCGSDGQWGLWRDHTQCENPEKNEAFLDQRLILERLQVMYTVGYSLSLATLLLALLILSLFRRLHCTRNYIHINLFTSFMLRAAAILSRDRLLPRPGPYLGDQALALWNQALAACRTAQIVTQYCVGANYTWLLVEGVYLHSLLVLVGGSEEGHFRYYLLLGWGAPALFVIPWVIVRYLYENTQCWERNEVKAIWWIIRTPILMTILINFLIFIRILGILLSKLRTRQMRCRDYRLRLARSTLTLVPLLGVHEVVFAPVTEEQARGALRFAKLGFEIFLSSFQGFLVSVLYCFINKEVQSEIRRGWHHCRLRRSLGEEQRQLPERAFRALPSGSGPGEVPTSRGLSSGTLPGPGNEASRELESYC

| pIC50 [pic50] | Binder |
| --- | --- |
| > 8 | B1 |
| > 8 | B2 |
| > 8 | B3 |
| > 8 | B4 |
| > 8 | B5 |
| > 8 | B6 |
| > 8 | B7 |
| > 8 | B8 |
| > 8 | B9 |
| > 8 | B10 |
| > 8 | B11 |
| > 8 | B12 |
| > 8 | B13 |
| > 8 | B14 |
| > 8 | B15 |
